Source: the nanobody polyreactivity screen of Harvey et al. (2022)

Experiment: yeast display, Sf9 membrane polyspecificity reagent, FACS + sequencing; frameworks hold sequencing errors
Outline: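 Using colony PCR, genes from sorted yeast display clones were amplified, then sequenced on MiSeq at 2 × 250 and filtered by CDR length. The clones had been stained with 10% biotinylated, detergent-solubilized Sf9 membrane reagent for 1 hour at 4 °C and sorted by FACS into low and high (top ~1%) gates on anti-HA and streptavidin fluorescence. Polyreactivity labels come from the gate of origin.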

| Sequence | polyreactivity (PSR sort gate) |
| --- | --- |
| QFQLVESGGGLVQAGGSLRLSCAASGRIFYRNAMGWYRQAPGKERELVAAINQTGGSTYYADSVKGRFTISGDNAKNTVYLQMNSLKPDDTAVYYCAVLGQVPTGSSRRYYWGQGTQVTVSS | high polyreactivity |
| QVQLVESGGGLVQAGGSLRLSCAASGRTFAPYVMGWYRQAPGKERELVAAITWSGGSTYYADSVKGRFTISRDNAKNTVYLQMNSLKPEDTALYYCAVKGAGGPKYDYWGQGTQVTVSS | high polyreactivity |
| QVQLVESAGGIVQAGGSLRLSCAASESIFETYDMGCYRQAPGTERELVAAITLSGGSTYYADSVKGRFTISRDNAKNTVYLQMNSLKPEDTAVYYCAADDSGVKVWEGDYWGQGTQVTVSS | low polyreactivity |
| QVQLVESGGGLVQAGGSLRLSCAASGFTFSQYAMGWYRQAPGKERELDAAISWNGGSTYYADSVKGRFTISRDNAKNTVYLQMNSLKPEDTAVYYCAAYGYYTKVTKYDYWGQGTQVTVSS | high polyreactivity |
| QVQLVESGGGLVQAGGSLRLSCAASGNIFSYYAMGWYRQAPGKERELVAAIRSSGVGTRYADSVKGRFTISRDNAKNTVYLQINSLKPEDTAVYYCAATGYTGYSRYYYWGQGTQVTVSS | high polyreactivity |
| QVQLVESGGGLVQAGGSLRLSCAASGRTFWRNAMGWYRQAPGKERELVADITTSGARTYYADSVKGRFTISRDNAKNTVYLQMNSLKPEDTAVYYCAKGPYTPWPKITGYNYWGQGTQVTVSS | high polyreactivity |
| QVQLVESGGGLVQAGGSLRLSFAASGRIFKRNTKRWYRQAPGKETELVAAITYSGITYYADSVKGRFTISRDNAKNTFYLQMNSLKPEDTAVYYCDKVLYPIGSPRFEYWGQGTQVTVSS | low polyreactivity |
| QVQLVESGGGLVQAGGSLRLICSASGSIFYRNVKRWSRQAPGKEREFVATISRGGTTNYADSVKGRITISRDNAKYTVYLQMNSLKPEDTAVYYCAAPIGVVYVGKGYDYWGQGTQVTLSS | low polyreactivity |
| QGQLVESGGGLVQAGGSLRFSCAASGSTFVWYAMGWYRQAPGKERELVAGINRSGGSRYYADSVKGRFTILRDNAKNTVYLQMNSLKPEDTAVYYCAARGKRFRNSRIAYDYWGKGTQVTVSS | high polyreactivity |
| QVQLVESGGGLVQAGGSLRLSRAASGIMFGSYAMGWYRQAPGKERELVAAITSRGGSTYYADSVKGRFTISRDNAKNTVYLQMISLKPEDTAVYYCADVLYYWRVVYYVYADTGDYWGQCTQVTVSS | high polyreactivity |
| QVQLVESGRGLVQAGGSLRLSCAASGFTFKSYAKGWYRHATGKVRELVAAISRGTSTKYADSVKGRFTISRDNAKNTVYLQMNSLKPEDSAVYNCAALFPTSDLRLRYYRYDYWGQGTQVTVSS | low polyreactivity |
| QVQLVESGGGLVQAGGSLRLSCAASGSTFDHYAMGWYRPAPGKERELVAAISYSGSTTDYADSVKGRFTISRDNAKNTVYLQMNSLKPVDTAVYYFAASGDVIQSPMDYWGQGTQVTVSS | low polyreactivity |
| QVQLVESGGGLVQAGGSLRLSCAASGSTFNYNPMGWYRQAPGKERELVAAISSSGGSTYYADSVKGRFTISRDNAKNTVYLQMNSLKPEDTAVYYCATGGSSRVRTEGDYWGQGTQVTVSS | low polyreactivity |
| QVQLVESGGGLVQAGGSLRLSCAASGRIFQYYAMGWYRQAPGKERELVAAISRGGSTNYADSVKGRFTISRDNAKNTVYCQMNSLIPVDTAVYYCAGDEYRYYFFRPGIGYDYWGQGTQVTVSS | low polyreactivity |
| QVQLVESGGGLVQAGGSLRLSCAASGSIFWYYGMGWYRQAPGKERELVAAISSGGSTNYADSVKGRFAISRDNAKNTVYLQMNRLKPEDTAVYYCATKGYLWGQGTQVTVSS | high polyreactivity |
| QVQLVESGGGLVQAGGSLRLSCAASGSTFRKYTMGWYRQAPGKERELVASISRRGGSTYYADSVKGRFTISRDNAKNTVYLQMNSLKPEDTAVYYCNVTYSQYGYDYWGQGTQVTVSS | high polyreactivity |
| QVQLVESGGGLVQAGGSLRLSCAASGSIFYYYAMGWYRQAPGKERELVAAITRSGNTYYADSVKGRFTISRDNAKNTVYLQMNSLKPEDTAVYYCAAEYGGGYGWGQGTQVTVSS | high polyreactivity |
| QVQLVESGGGLVQAGGSLRLRCAASGFIFDYYAMGWYRQAPGKEWELVAGISWSGGSTYYADSVKGRFTISRDNAKNTVYLQMNSLKPEDTAVYYCATDDYLVIFEYDYWGQGTQVTVSS | low polyreactivity |
| QVQLVESGGGLVQAGGSLRLSCAASGFTFAYYAMGWYRQAPRKESELVAGISWRGGRTYYADSVKGRFTISRDNAKNTVYLQMNSLKPEDTAVYYCAKQPGNFGRFDYWGQGTQVTVSS | high polyreactivity |
| QVQLVESGGGLVQAGGSLRLSCAASGRTFYPYAMGWYRQAPGKEREFVAAITWTGDSTYYADSVKGRFTISRDNAKNTVYLQMNSLKPEDTAVYYCAADLSSSPYYYGYDYWGQGTQVTVSS | low polyreactivity |
| QVQLVESGGGLVQAGGSLRLSCATSGITFIGKYAMGWYRQAPGKERELVAAISWSGGRTYYADSVKGRFTISRDNAKNSDYLQMNSLKPEDTAVYYCAVYPRDAERYGYWGQGTQVTVSS | high polyreactivity |
| QVQLVESGGGLVQAGGSLRLRCAASGITLVDYAMGWNRQAPGKERELVAAITTGGSTNYADSVKGRFTISRDNAKNTVYLQINSLKPEDTAVYYCNKRAVILYDYWGQGTQVTVSS | low polyreactivity |

| Sequence | polyreactivity (PSR sort gate) |
| --- | --- |
| QVQLVESGGGLVQAGGSLRLSCAASGSTFNDYVMGWYRQAPGKERELVAAISRSGGSTYYADSVKGRFTISRDNAKNTVYLQMNSLKPEDTAVYYCAAASPGPWRYDYWGQGTQVTVSS | high polyreactivity |
| QVQLVESGGGLVQAGGSLRLSCAASGRIFHYYAMGWYRQAPGKERELVASISTGGNTYYADSVKGRFTISRDNAKNTVYLQMNSLKPEVTAVYYCAAVTVRKFYKGINYWYEYWGEGTQVTVSS | high polyreactivity |
| QVHLVESGGGLVQAGVSLRLSCAASGRIFEENAMGWYRQAPGKERELVAAITYSGGSTYYADSVKGRFTISRDNAKNTVYLQMNSLKPEDTAVYYCAATVDLVYIDYDYWGQGTQVTVSS | low polyreactivity |
| QVQLVESGGGLVQAGGSLRLSCAASGSIFNWYALGWYRQAPGKDRELVAAISKSGGRPYYADSVKGRFTISRDNAKNTVYLQKNSLKPEDTAVFSCNAPRFVGLNVYGYDYWGQGTQVTVSS | high polyreactivity |
| QVQLVESGGGLVQAGGSLRLSCAASGSIFLHNAMGWYRQAPGKERELVAVITSRGGSTYYADSVKGRFTISRDNAKNTVYLQMNSLKPEDTAVYYCAADSRQSDYYYQPTKIDYWGQGTQVTVSS | low polyreactivity |
| QVQIVESGGGLVQAGGSLRLSCAASGFIFWDYAMGWYRQAPGKERELVAAISDSGGDTYYADSVKGRFTISRDNAKNTVYLQMNSLKPEDTAVYYCAADVELWVFRGQQYDYWGQGTQVTVSS | low polyreactivity |
| QFQLVESGGGLVQAGGSLRLSCAASGLIFGAYDMGWYRQAPGKERELVAAITYSGGRTHYADSVKGRFTISRDNAKNTVYLQMNSLKPDDTAVYYCAAGSSHHFDYEGGYWGKGTQVTVSS | low polyreactivity |
| QVQLVESGGGLVQAGGSLRLSCAASGFTFEYYAMGWFRQAPGKERELVATITSGGSTYYADSVKGRFTISRDNAKNTVYLQMNSLKPEDTAVYDCNTSSPWIEDYWGQGTQVTVSS | low polyreactivity |
| QVQLVESGGGLVQAGGSLRLSCAASGSTFGPYAMGWYRQAPGKERELVATINSSGSTNYADSVKGRFTISRDNAKNTVYLQMKSLKPEDTAVYYCATLHYYYWYDYWGQGTQVTVSS | low polyreactivity |
| QVQLVESGGGLVQAGGSLRLSCAASGRILTTNAMGWYRQAPGKERELVAAITRSGGRTYYADSVKGRFTISRDNAKNTVYLQMNSLKPEDTAVYYCAAATSPGIYDYWGQGTQVTVSS | high polyreactivity |
| QVQLVESGGGLVQAGGSLSLICAASGRILSGNAMVWYRQAPGKERELVAAITNAGITKYAVSVKGRFTISRDNAKNTVYLQMNSLKPEHTEVYYCASDRYAYKLYDYWGQGTQVTVSS | low polyreactivity |
| QVQLEESGAGLLQAGGSIRLSCAASGRTFWYYTMGWYRQAPGKEREVVAAISSGGRTNYADSVKGRFTISRDNAKNTVYLQMNSLKPEDTAVYDCAALYAKYYYRYDYWGQGTQVTVSS | high polyreactivity |
| QVQLVESGGGLVQAGGSLRLSCAASGSIFRGYAMGWYRQAPGKERELVAAITSRGGSTYYADSVKGRFTISRDNAKNTVYLQMNSLKPEDTAVYYCNKRVYYPWGQGTQVTVSS | high polyreactivity |
| QVQLVESGGGLVQAGGSLRLSCAASGIYYNAMGWYRQAPGKERELVAAITTGDRTNYADSVKGRFTISRDNAKNTVYLQMNCLKPEDTAVYYCNAVVERLSSTARDFAYDYWGQGTQVTVSS | low polyreactivity |
| QVQLVESGGGLVQAGGSLRLSCAASGSIFASNAMGWYRQAPGKDTELVAAITYSGGSTYYADSVKGRFTISRDNAKKTVDLQMNSLKPEDTAVYYCAADVSVPQRYDYWGQGTQVTVSS | low polyreactivity |
| QVQLVESGGGIVQAGGSLRLTCAASGRTYTPYAMGWYRQAPGKERELVAAIDTSGGSTYADSVKGRFTISRDNAKNTVYLQMNSLKPEDTAVYYCATRGFYSWDYWYLWEYDYWGQGTQVTVSS | low polyreactivity |
| QVQLVESGGGLVQAGGSLRLSCAASGFIYTYAMGSYRQAPGKERELVAAIRWIGTRTYYADSVKGRFTISRDNAKNTVYLQMNSLKPEDTADYYCAARYYTYDGYSKYDYWGQGTQVNVSS | high polyreactivity |
| QVQLVESGGGLVQAGGSLRLSCAASGSTFYPNAMGWSRQAPGKERELVAAISRGTRTKYADSVKGRFTISRDNAKNTVYLQMKSLKPEDTAVYYCAADTGTGLDWGQGTQVTVSS | high polyreactivity |
| QGQLVESGGGLVQAGVSLRLSCAASGSTFRDYAMGWYRQAPGKERELVASITSGGSTNYADSVKGRFTISRDNAKNTVYLQMNSLKPEDTAVYYCGAESMPRWFVRYDYWGQGTQVTVSS | low polyreactivity |
| QVQLQESGGGLVQAGGSLRLSCAASGSIFQYGYMGWYRQAPGKEREFVAGIGGGTSNYADSVKGRFTISRDNAKNTVYLQMNSLKPEDTAVYYCNTDAGDYYGENYWGQGTQVTVSS | low polyreactivity |
| QVQLVESGGGLVQAGGSLRLSCAASGFIFRRYAMGWYRQAPGKERELVAAINYSGTSTYYADSVKGRFTISRDNAKNTVYLQMNSLKPEDTAVYYCNARVGYPPYDYWGQGTQVTVSS | low polyreactivity |
